In patent publication US11111484B2, “Streptococcus bacteriophage lysins for detection and treatment of gram positive bacteria” (priority 2011, dated 2021):
“Also recorded” adds a separate entry of the source.

Columns and labels:
S. suis 6112 (ST1) = assay: ΔPlySs1 OD600 lysis, 1 hr, optimal buffering conditions; type: cell-based, Streptococcus suis
Protocol: (§1) Truncated PlySs1(ΔPlySs1) lysin activity was determined against different cell types. Given the above experiments, the following optimal buffering conditions were employed for all further in vitro experiments with ΔPlySs1: 20 mM phosphate buffer, pH=7.8, 2 mM EDTA. A range of lysin concentrations, from 6.5-130 μg/ml, were introduced to live S. suis cells in this buffer. Three strains were considered particularly relevant: 7711, the serotype 7 strain that encodes PlySs1; S735, the serotype 2 reference strain; and 7997, a highly virulent serotype 9 strain. In terms of bacterial viability, only the highest PlySs1-concentration (130 μg/ml) led to a >90% decrease in CFUs for 7711, S735, and 7997 after 1 hr treatment (TABLE 2). The lysin was also tested against actively-dividing cells in broth culture (strain 7711) (FIG. 20).
(§2) ΔPlySs1 was further tested against a panel of 19 other S. suis strains of diverse serotypes, as well as other species of Gram-positive bacteria. The same lysin concentrations were used as above. For each dosage, the observed lysis values after 1 hr are listed in TABLE 3 and TABLE 4, and the information is summarized graphically in FIG. 21.

S. suis 8076 (ST9) = assay: as above; type: cell-based, Streptococcus suis
Protocol: as §1, §2

S. suis ST6 = assay: as above; type: cell-based, Streptococcus suis
Protocol: as §1, §2

S. suis ST3 = assay: as above; type: cell-based, Streptococcus suis
Protocol: as §1, §2

S. suis ST5 = assay: as above; type: cell-based, Streptococcus suis
Protocol: as §1, §2

S. suis ST14 = assay: as above; type: cell-based, Streptococcus suis
Protocol: as §1, §2

S. suis ST10 = assay: as above; type: cell-based, Streptococcus suis
Protocol: as §1, §2

S. suis 6388 (ST1) = assay: as above; type: cell-based, Streptococcus suis
Protocol: as §1, §2

S. suis ST11 = assay: as above; type: cell-based, Streptococcus suis
Protocol: as §1, §2

S. suis ST4 = assay: as above; type: cell-based, Streptococcus suis
Protocol: as §1, §2

S. suis 10 (ST2) = assay: as above; type: cell-based, Streptococcus suis
Protocol: as §1, §2

S. suis ST9 = assay: as above; type: cell-based, Streptococcus suis
Protocol: as §1, §2

S. suis ST1 = assay: as above; type: cell-based, Streptococcus suis
Protocol: as §1, §2

S. suis ST2 = assay: as above; type: cell-based, Streptococcus suis
Protocol: as §1, §2

S. suis ST13 = assay: as above; type: cell-based, Streptococcus suis
Protocol: as §1, §2

S. suis ST7 = assay: as above; type: cell-based, Streptococcus suis
Protocol: as §1, §2

B. subtilis SL4 = assay: as above; type: cell-based, Bacillus subtilis
MSSA strain 8325 = assay: resistance assay, exposure to incrementally increasing concentrations; type: cell-based, Staphylococcus aureus; conditions: MSSA 8325; concentration doubled daily from 1/32 to 4× MIC over 8 days
S. pyogenes = assay: CFU studies, bactericidal effect; type: cell-based, Streptococcus pyogenes; conditions: 128 μg/ml PlySs2, 1 hour
Protocol: Log-phase bacteria were resuspended in buffer A to an OD600 of 0.1 (=0.5 McFarland≈10^8 CFU/ml). PlySs2 was added at 128 μg/ml to polypropylene microtiter plates (Costar) in triplicate for each test organism. Plates were sealed and incubated at 37° C. with shaking every 5 minutes for 1 hour. After 1 hour of incubation, cells were serially diluted in 10-fold increments and plated on BHI. Triplicate controls for each strain were performed with buffer B replacing PlySs2.

B1: ΔPlySs1: truncated PlySs1 lysin, SEQ ID NO:2, N-terminal 254 amino acids: only N-terminal enzymatic and central binding domains (protein, listed as Streptococcus suis)
chain: MTINLETSIRWMSDRVGKVSYSMDYRNGPNSYDCSSAVYYALMAGGAISAGWAVNTEYMHDWLIRNGYVLVAENKPFNAQRHDVCILGKRGYSSGAGGHVVIFVDNVNVIHCNYARNGISIDNYNQVHRGMYYYLYRPANQPSISNKSLDQLVKETLAGVHGNGDTRKASLGSQYEAVMAVINGKASASEKSDEELAREVLAGKHGAGEDRKRSLGPRYEPVQAKVNELLKAKEKPSETAKNEPQTVQFKEDGDL
S. suis 6112 (ST1); 6.5 μg/ml
  1-hour treated/untreated OD600-ratio: 0.14
S. suis 6112 (ST1); 13 μg/ml
  1-hour treated/untreated OD600-ratio: 0.11
S. suis 6112 (ST1); 30 μg/ml
  1-hour treated/untreated OD600-ratio: 0.06
S. suis 6112 (ST1); 65 μg/ml
  1-hour treated/untreated OD600-ratio: 0.02
S. suis 6112 (ST1); 130 μg/ml
  1-hour treated/untreated OD600-ratio: 0.01
S. suis 8076 (ST9); 6.5 μg/ml
  1-hour treated/untreated OD600-ratio: 0.52
S. suis 8076 (ST9); 13 μg/ml
  1-hour treated/untreated OD600-ratio: 0.40
S. suis 8076 (ST9); 30 μg/ml
  1-hour treated/untreated OD600-ratio: 0.21
S. suis 8076 (ST9); 65 μg/ml
  1-hour treated/untreated OD600-ratio: 0.14
S. suis 8076 (ST9); 130 μg/ml
  1-hour treated/untreated OD600-ratio: 0.04
S. suis ST6; 6.5 μg/ml
  1-hour treated/untreated OD600-ratio: 0.76
S. suis ST6; 13 μg/ml
  1-hour treated/untreated OD600-ratio: 0.56
S. suis ST6; 30 μg/ml
  1-hour treated/untreated OD600-ratio: 0.40
S. suis ST6; 65 μg/ml
  1-hour treated/untreated OD600-ratio: 0.21
S. suis ST6; 130 μg/ml
  1-hour treated/untreated OD600-ratio: 0.06
S. suis ST3; 6.5 μg/ml
  1-hour treated/untreated OD600-ratio: 0.81
S. suis ST3; 13 μg/ml
  1-hour treated/untreated OD600-ratio: 0.71
S. suis ST3; 30 μg/ml
  1-hour treated/untreated OD600-ratio: 0.48
S. suis ST3; 65 μg/ml
  1-hour treated/untreated OD600-ratio: 0.32
S. suis ST3; 130 μg/ml
  1-hour treated/untreated OD600-ratio: 0.16
S. suis ST5; 6.5 μg/ml
  1-hour treated/untreated OD600-ratio: 0.78
S. suis ST5; 13 μg/ml
  1-hour treated/untreated OD600-ratio: 0.59
S. suis ST5; 30 μg/ml
  1-hour treated/untreated OD600-ratio: 0.39
S. suis ST5; 65 μg/ml
  1-hour treated/untreated OD600-ratio: 0.22
S. suis ST5; 130 μg/ml
  1-hour treated/untreated OD600-ratio: 0.10
S. suis ST14; 6.5 μg/ml
  1-hour treated/untreated OD600-ratio: 0.79
S. suis ST14; 13 μg/ml
  1-hour treated/untreated OD600-ratio: 0.57
S. suis ST14; 30 μg/ml
  1-hour treated/untreated OD600-ratio: 0.33
S. suis ST14; 65 μg/ml
  1-hour treated/untreated OD600-ratio: 0.15
S. suis ST14; 130 μg/ml
  1-hour treated/untreated OD600-ratio: 0.06
S. suis ST10; 6.5 μg/ml
  1-hour treated/untreated OD600-ratio: 0.85
S. suis ST10; 13 μg/ml
  1-hour treated/untreated OD600-ratio: 0.72
S. suis ST10; 30 μg/ml
  1-hour treated/untreated OD600-ratio: 0.55
S. suis ST10; 65 μg/ml
  1-hour treated/untreated OD600-ratio: 0.44
S. suis ST10; 130 μg/ml
  1-hour treated/untreated OD600-ratio: 0.28
S. suis 6388 (ST1); 6.5 μg/ml
  1-hour treated/untreated OD600-ratio: 0.15
S. suis 6388 (ST1); 13 μg/ml
  1-hour treated/untreated OD600-ratio: 0.13
S. suis 6388 (ST1); 30 μg/ml
  1-hour treated/untreated OD600-ratio: 0.06
S. suis 6388 (ST1); 65 μg/ml
  1-hour treated/untreated OD600-ratio: 0.03
S. suis 6388 (ST1); 130 μg/ml
  1-hour treated/untreated OD600-ratio: 0.02
S. suis ST11; 6.5 μg/ml
  1-hour treated/untreated OD600-ratio: 0.64
S. suis ST11; 13 μg/ml
  1-hour treated/untreated OD600-ratio: 0.47
S. suis ST11; 30 μg/ml
  1-hour treated/untreated OD600-ratio: 0.32
S. suis ST11; 65 μg/ml
  1-hour treated/untreated OD600-ratio: 0.19
S. suis ST11; 130 μg/ml
  1-hour treated/untreated OD600-ratio: 0.07
S. suis ST4; 6.5 μg/ml
  1-hour treated/untreated OD600-ratio: 0.63
S. suis ST4; 13 μg/ml
  1-hour treated/untreated OD600-ratio: 0.47
S. suis ST4; 30 μg/ml
  1-hour treated/untreated OD600-ratio: 0.32
S. suis ST4; 65 μg/ml
  1-hour treated/untreated OD600-ratio: 0.22
S. suis ST4; 130 μg/ml
  1-hour treated/untreated OD600-ratio: 0.12
S. suis 10 (ST2); 6.5 μg/ml
  1-hour treated/untreated OD600-ratio: 0.29
S. suis 10 (ST2); 13 μg/ml
  1-hour treated/untreated OD600-ratio: 0.18
S. suis 10 (ST2); 30 μg/ml
  1-hour treated/untreated OD600-ratio: 0.10
S. suis 10 (ST2); 65 μg/ml
  1-hour treated/untreated OD600-ratio: 0.05
S. suis 10 (ST2); 130 μg/ml
  1-hour treated/untreated OD600-ratio: 0.02
S. suis ST9; 6.5 μg/ml
  1-hour treated/untreated OD600-ratio: 0.50
S. suis ST9; 13 μg/ml
  1-hour treated/untreated OD600-ratio: 0.30
S. suis ST9; 30 μg/ml
  1-hour treated/untreated OD600-ratio: 0.23
S. suis ST9; 65 μg/ml
  1-hour treated/untreated OD600-ratio: 0.13
S. suis ST9; 130 μg/ml
  1-hour treated/untreated OD600-ratio: 0.05
S. suis ST1; 6.5 μg/ml
  1-hour treated/untreated OD600-ratio: 0.80
S. suis ST1; 13 μg/ml
  1-hour treated/untreated OD600-ratio: 0.34
S. suis ST1; 30 μg/ml
  1-hour treated/untreated OD600-ratio: 0.36
S. suis ST1; 65 μg/ml
  1-hour treated/untreated OD600-ratio: 0.19
S. suis ST1; 130 μg/ml
  1-hour treated/untreated OD600-ratio: 0.06
S. suis ST2; 6.5 μg/ml
  1-hour treated/untreated OD600-ratio: 0.79
S. suis ST2; 13 μg/ml
  1-hour treated/untreated OD600-ratio: 0.70
S. suis ST2; 30 μg/ml
  1-hour treated/untreated OD600-ratio: 0.49
S. suis ST2; 65 μg/ml
  1-hour treated/untreated OD600-ratio: 0.34
S. suis ST2; 130 μg/ml
  1-hour treated/untreated OD600-ratio: 0.17
S. suis ST13; 6.5 μg/ml
  1-hour treated/untreated OD600-ratio: 0.32
S. suis ST13; 13 μg/ml
  1-hour treated/untreated OD600-ratio: 0.17
S. suis ST13; 30 μg/ml
  1-hour treated/untreated OD600-ratio: 0.04
S. suis ST13; 65 μg/ml
  1-hour treated/untreated OD600-ratio: 0.02
S. suis ST13; 130 μg/ml
  1-hour treated/untreated OD600-ratio: 0.02
S. suis ST7; 6.5 μg/ml
  1-hour treated/untreated OD600-ratio: 0.65
S. suis ST7; 13 μg/ml
  1-hour treated/untreated OD600-ratio: 0.47
S. suis ST7; 30 μg/ml
  1-hour treated/untreated OD600-ratio: 0.34
S. suis ST7; 65 μg/ml
  1-hour treated/untreated OD600-ratio: 0.22
S. suis ST7; 130 μg/ml
  1-hour treated/untreated OD600-ratio: 0.11
B. subtilis SL4; 6.5 μg/ml
  lysis value after 1 hr (treated/untreated OD600 ratio): 1.07
B. subtilis SL4; 13 μg/ml
  lysis value after 1 hr (treated/untreated OD600 ratio): 1.05
B. subtilis SL4; 30 μg/ml
  lysis value after 1 hr (treated/untreated OD600 ratio): 1.04
B. subtilis SL4; 65 μg/ml
  lysis value after 1 hr (treated/untreated OD600 ratio): 1.03
B. subtilis SL4; 130 μg/ml
  lysis value after 1 hr (treated/untreated OD600 ratio): 0.96

B2: PlySs2: Streptococcus suis prophage lysin, SEQ ID NO:3; N-terminal CHAP domain and C-terminal SH3-type 5 domain (protein, listed as Streptococcus suis)
chain: MTTVNEALNNVRAQVGSGVSVGNGECYALASWYERMISPDATVGLGAGVGWVSGAIGDTISAKNIGSSYNWQANGWTVSTSGPFKAGQIVTLGATPGNPYGHVVIVEAVDGDRLTILEQNYGGKRYPVRNYYSAASYRQQVVHYITPPGTVAQSAPNLAGSRSYRETGTMTVTVDALNVRRAPNTSGEIVAVYKRGESFDYDTVIIDVNGYVWVSYIGGSGKRNYVATGATKDGKRFGNAWGTFK
MSSA strain 8325
  development of resistance: Neither S. aureus strain developed resistance; also recorded: None of MRSA strain MW2, MSSA strain 8325, nor S. pyogenes strain 5005 developed resistance
S. pyogenes
  reduction of colony forming units (CFUs): 3 logs
